Here are results for four molecules from article PMC6642826.

Assay [1] addresses Oregon Green 488-labelled RelA dimerization domain homodimer (murine) (UniProt Q04207). As to the kind of experiment: fluorescence polarisation.
The target in assay [2] is RelA homodimer as used for SPR (murine) (UniProt Q04207). Kind of assay: SPR. On the technique in general: SPR reads the build-up and loss of mass on a sensor chip optically.
Assay [3] has as its target Oregon Green 488-labelled p50(39–350)-cRel(1–294) heterodimer (murine) (UniProt P25799). As to the kind of experiment: fluorescence polarisation. In general terms: In fluorescence polarisation assays a small probe gives low polarisation when free and higher when bound to something large.
Assay [4] addresses Oregon Green 488-labelled RelA(19–321)-p50(39–350) heterodimer (murine) (UniProt Q04207). Kind of assay: fluorescence polarisation.
The target in assay [5] is RelA-p50 heterodimer as used for SPR (murine) (UniProt Q04207). As to the kind of experiment: SPR.
The next assay has as its target RelA (Mus musculus) (UniProt Q04207). Particulars: cited from earlier work.
Assay [6] concerns the target labelled p50(39–350) homodimer (murine) (UniProt P25799). Kind of assay: fluorescence polarisation.

“IKBα(67–287) (from UniProt P25963 67-287) (domain or fragment)”: the Kd (as a rule, the constant that tells how readily two partners part at equilibrium) worked out at 0.28 nM in assay [1] and 0.054 nM in assay [2].

Regarding IKBβ(50–359) (domain or fragment), the Kd was determined as 0.92 nM in assay [3]; 0.072 nM in assay [1]; 0.89 nM in assay [4]; 1.1 nM in assay [5]; 0.07 nM in assay [2].

As for RelA (from UniProt Q04207), the Kd with RelA (Mus musculus) is 800 nM.

B1: (His)6-IKBε(40–364) (domain or fragment)
chain: SSQSGCPQPWRHAPETHKEPEKEDADGERADSTYASSSLTESFPLLERPEAKDPSPPAPGSPLPPAGVLSPQQLEALTYISEDGDTLLHLAVIHEAPSVLFCCLAFLPQEVLDIQNNLYQTALHLAVHLDQPDVVRALVLKGASRILQDQHGDTALHVACRRQNLACACCLLEEQPEPGRQLSHPLDLQLKNWQGLACLHIATLQRNQPLIELLLQNGADIDVQEGTSGKTALHLAVETQERSLVQFLLQAGARVDARMLNGCTPLHLAAGRGLNSISSTLCEAGADSLLLNVEDETPQDLAEDLLSYLPFDDLKISGKPLLCTD
Take B1: in assay [6], the dissociation constant (Kd) worked out at 0.81 nM.
